What all share (experiment): Biolayer interferometry (BLItz)
Assay [1] deals with Xenopus laevis StrepII-FANCD2. The following applies: StrepII-FANCD2-loaded biosensors in 20 ng/mL solution; FANCI 62.5-1000 nM.
Assay [2] has as its target T1, Xenopus laevis StrepII-FANCD2.
T1 chain: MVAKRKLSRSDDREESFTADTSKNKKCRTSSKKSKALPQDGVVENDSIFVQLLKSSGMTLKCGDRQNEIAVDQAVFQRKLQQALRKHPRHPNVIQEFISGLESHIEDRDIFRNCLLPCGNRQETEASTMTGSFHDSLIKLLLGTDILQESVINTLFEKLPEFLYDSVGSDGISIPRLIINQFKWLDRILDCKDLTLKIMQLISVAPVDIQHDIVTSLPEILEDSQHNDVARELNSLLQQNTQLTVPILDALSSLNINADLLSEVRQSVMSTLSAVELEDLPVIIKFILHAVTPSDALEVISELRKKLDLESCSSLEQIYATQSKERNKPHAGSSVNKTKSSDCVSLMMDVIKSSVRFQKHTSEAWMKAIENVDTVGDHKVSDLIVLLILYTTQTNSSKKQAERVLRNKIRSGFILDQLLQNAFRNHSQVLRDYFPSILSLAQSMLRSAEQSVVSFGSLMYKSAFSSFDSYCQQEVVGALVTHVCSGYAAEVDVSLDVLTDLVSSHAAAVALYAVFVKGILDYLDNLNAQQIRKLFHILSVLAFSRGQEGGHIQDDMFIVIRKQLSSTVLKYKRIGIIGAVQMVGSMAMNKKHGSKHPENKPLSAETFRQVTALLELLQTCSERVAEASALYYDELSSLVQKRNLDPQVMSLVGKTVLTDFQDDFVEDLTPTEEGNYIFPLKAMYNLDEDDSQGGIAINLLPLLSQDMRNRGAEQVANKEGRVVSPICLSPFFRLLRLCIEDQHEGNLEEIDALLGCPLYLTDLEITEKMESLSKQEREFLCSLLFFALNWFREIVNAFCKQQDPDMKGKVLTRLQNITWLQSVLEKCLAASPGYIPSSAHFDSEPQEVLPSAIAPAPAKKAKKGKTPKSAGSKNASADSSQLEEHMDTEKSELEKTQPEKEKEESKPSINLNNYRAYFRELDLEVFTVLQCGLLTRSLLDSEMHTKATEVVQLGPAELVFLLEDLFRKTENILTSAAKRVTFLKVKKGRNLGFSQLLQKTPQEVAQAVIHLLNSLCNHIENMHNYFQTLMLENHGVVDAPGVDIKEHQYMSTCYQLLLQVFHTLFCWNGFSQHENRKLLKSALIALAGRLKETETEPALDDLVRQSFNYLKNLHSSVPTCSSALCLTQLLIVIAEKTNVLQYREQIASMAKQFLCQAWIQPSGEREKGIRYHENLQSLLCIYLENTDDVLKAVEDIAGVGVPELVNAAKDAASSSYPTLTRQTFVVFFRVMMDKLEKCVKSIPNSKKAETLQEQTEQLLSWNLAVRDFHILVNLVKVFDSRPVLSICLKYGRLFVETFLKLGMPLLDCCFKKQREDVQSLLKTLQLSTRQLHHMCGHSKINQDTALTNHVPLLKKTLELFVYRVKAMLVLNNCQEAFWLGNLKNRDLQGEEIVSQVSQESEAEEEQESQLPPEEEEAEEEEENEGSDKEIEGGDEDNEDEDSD
The settings on record: chain shown with the change; StrepII-FANCD2-loaded biosensors in 20 ng/mL solution; FANCI 62.5-1000 nM.

Assay [3] deals with T2, Xenopus laevis StrepII-FANCD2 (Xenopus laevis).
T2 chain: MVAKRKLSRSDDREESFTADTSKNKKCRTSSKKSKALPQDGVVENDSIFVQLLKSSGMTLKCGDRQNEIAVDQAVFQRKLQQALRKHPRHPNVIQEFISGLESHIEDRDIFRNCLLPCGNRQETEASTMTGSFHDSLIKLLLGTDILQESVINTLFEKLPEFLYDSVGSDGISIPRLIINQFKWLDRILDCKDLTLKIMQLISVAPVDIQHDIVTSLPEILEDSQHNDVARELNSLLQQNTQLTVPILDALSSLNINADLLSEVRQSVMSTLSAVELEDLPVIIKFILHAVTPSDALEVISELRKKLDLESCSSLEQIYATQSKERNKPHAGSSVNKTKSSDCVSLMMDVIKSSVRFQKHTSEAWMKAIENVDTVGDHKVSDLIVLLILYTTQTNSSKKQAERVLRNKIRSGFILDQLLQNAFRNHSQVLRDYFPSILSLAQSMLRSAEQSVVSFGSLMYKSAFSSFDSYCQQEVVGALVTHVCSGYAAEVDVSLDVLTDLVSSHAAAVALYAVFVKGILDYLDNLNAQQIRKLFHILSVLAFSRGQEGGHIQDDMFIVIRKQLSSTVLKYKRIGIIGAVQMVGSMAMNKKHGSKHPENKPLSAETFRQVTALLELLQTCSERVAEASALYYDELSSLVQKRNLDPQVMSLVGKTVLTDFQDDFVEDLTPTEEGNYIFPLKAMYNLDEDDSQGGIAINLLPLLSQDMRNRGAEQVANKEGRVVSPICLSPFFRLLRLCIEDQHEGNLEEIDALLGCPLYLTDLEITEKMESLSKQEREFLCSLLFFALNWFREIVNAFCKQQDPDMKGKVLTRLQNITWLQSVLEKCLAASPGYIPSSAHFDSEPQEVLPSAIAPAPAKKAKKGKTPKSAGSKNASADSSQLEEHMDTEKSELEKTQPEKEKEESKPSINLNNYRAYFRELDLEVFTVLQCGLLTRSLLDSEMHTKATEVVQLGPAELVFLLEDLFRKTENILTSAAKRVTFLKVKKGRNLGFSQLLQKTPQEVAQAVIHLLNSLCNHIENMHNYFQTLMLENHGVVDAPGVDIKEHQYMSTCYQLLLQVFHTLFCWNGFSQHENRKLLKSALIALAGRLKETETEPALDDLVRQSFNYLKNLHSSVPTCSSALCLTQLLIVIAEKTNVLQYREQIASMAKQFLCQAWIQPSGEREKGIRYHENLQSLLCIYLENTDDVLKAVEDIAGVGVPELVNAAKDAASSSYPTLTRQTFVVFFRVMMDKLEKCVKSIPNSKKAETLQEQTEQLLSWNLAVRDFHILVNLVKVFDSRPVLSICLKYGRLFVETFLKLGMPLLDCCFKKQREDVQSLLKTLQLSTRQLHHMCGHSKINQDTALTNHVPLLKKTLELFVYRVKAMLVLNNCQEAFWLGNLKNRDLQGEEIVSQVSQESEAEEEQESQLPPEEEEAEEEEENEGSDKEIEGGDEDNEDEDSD
The settings on record: StrepII-FANCD2-loaded biosensors in 20 ng/mL solution; FANCI 62.5-1000 nM.

“Xenopus laevis Flag-FANCI wild type S557D; S560D; S566D; S597D; S618D; S630D” gave a kon in assay [1] of 39000 M⁻¹ s⁻¹.

B1: Xenopus laevis Flag-FANCI wild type S557A; S560A; S566A; S597A; S618A; S630A (protein)
chain: MDQKILSLAAEEQNDGLQSYLQNLKETELSEIITKHAVKGKDCGALLRGVFKGSPCSHDVAVRRRLAVYRHCIQLVESGDLQREVASEIMGLLMLEVHHFPGASLIELANLFADAVKAGTLSNGKSLDLFPTVLTALSSKESLAYGKGELTGEEFKKQLINSLCSSRWDPQSVIFLTSMFRDVSLSAEELQFVVEKVLRMLSKLDLQEMPPLVYQLLLLSAKGSKKNIVEGIITIFNDLDQKQLVQQENSESLDLEDATIPQDQLHHVEGTIILHIVFAIKLDQELGRELLKYLKAGQQGDSSKILCPFSAALLLSVSRIHRFQEQVFDFLKSTILRDYKDLQFHQSSKFLQDLVPQPVCVSSILLETVKNSVYGWDHVTQGLVELGFILMDSFGPKAAFGNKVVELISVHSRTPSQQACQLGSRILLETFKVHEPIRSEILEQVLNRVITKAATPVTHFIDLLSDIVVSAPLILQNSSSKVTEAFDHLSFLPLTTVQGLLKAVQPLLKISMSMRDSLILVLRKAMFSSQIDARKSAVAGFLLLLRNFKVLGSLSSAQCAQAIGAAQIQVDVHMRYNAAANEAFCLEILGSLRRCLAQQADVRLMLYEGFYDVLRRNAQLASSVMQTLLAQLKRYYEPEPDLLPPLKLEGCITAQGDHIFLQEPLAHLLCCIHHCLQWYKSSLQQHRNPDEDDDDDDQTGCQQDLNDIMESITRRMIKCDLEDFELDKSADFSLASGVGVKNNIYAVLVMGICEVLIEYNFIIANFSKSKFEDILGLFKCCSKLSDILKEKAAKGRQPGNNKTARSLISMTFVSTLLTALFRDSTRSHEESLSILRANVDFMRYSVCVALQKIQQLEETGVTDGPDGQNSEKMFRSLCEITRVLMWRYTSIPAAAENPGKKDKGKTISLLCLEGLLRVFNTVQQRYPSKIPQFLTALDALGDEDEEGSREINVTEKAAFQIKQFQRSLINQLSGGEDDFNSKEALLLVSILSTLSRLLAPSSQQFVQMLSWTVKICKETNIEDVQFCKGIMNLLFSLHVQFKSPVSVLRELCQDIHGHLGDIDQDIEVEKQSHFATVSLKTAAPTVTLLVLGQAAKVLEEVDWLIIKLKGLLGSEKLSTEDLTQTSNARVPIEKAIILQLGTLLTACHELVQTALPAGSCTDTLLKELAKMYTILTSVVKYYLQICSSHGGQISARLEKLVKLSGSHLTPQCYAFITYVQNIHSESLSLAAEKKKKKKEEALTVTSAKILRDTKPIPNLIFAIEQYEKFLIHLSKKSKVNLMQYMKLSTSRDFRINAATLDAALQEKGSEDEENEPDNEQAVTEEESQEPKKKRRRK
Take B1: in assay [2], the Kd turned out to be 10.1 nM and the koff is 9e-05 s⁻¹. Moreover, the kon in assay [3] came out at 11000 M⁻¹ s⁻¹.

Values taken from article PMC7010609 (2020).
